The target in one assay is T1, BHK-mIL-27R cells (Mus musculus, UniProt O70394).
T1 construct: expressed in transfected cells; host or cells: BHK cells
T1 sequence (O70394 25-623): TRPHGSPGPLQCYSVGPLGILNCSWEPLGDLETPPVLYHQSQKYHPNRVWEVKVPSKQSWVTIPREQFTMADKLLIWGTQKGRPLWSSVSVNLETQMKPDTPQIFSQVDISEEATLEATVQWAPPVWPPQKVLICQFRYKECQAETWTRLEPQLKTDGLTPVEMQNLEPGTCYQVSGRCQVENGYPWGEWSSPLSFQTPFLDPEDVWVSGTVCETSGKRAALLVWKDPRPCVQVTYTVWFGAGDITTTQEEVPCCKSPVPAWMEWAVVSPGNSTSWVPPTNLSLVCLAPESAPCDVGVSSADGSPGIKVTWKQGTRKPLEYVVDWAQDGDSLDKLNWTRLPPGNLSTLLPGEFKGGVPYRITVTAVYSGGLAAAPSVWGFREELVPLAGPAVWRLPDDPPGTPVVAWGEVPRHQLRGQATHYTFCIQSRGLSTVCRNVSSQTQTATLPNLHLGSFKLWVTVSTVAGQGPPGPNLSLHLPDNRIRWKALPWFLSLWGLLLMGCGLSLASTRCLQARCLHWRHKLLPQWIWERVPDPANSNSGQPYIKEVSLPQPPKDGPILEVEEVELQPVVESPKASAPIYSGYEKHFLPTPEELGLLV
T1 sequence (Q00560 23-917 partner): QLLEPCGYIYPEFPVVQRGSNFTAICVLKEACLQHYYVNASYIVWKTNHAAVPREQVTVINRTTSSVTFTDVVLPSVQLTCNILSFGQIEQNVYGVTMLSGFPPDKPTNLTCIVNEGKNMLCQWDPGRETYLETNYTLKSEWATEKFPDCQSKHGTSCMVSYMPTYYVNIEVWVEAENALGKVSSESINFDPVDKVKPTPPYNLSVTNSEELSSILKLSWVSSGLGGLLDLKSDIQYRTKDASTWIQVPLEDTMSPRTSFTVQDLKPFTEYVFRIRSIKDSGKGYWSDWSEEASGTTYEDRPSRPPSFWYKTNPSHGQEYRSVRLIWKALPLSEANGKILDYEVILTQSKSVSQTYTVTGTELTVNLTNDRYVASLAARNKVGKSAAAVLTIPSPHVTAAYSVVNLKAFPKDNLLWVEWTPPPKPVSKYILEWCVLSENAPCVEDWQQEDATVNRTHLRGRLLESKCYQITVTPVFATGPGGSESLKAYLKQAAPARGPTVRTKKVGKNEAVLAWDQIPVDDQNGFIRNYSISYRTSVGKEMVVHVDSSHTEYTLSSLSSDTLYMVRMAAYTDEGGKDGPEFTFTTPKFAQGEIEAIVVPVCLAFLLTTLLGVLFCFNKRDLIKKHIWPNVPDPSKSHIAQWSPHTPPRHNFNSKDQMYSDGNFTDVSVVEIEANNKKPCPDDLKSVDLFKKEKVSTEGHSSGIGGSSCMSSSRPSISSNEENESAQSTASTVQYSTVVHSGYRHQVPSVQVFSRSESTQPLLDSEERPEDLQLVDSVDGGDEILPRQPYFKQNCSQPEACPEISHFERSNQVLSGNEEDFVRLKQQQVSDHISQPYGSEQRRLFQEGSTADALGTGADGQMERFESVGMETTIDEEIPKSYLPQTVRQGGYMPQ
The assay can be described thus: Competition binding against 125I-labeled A1426F. To be noted: 0.1 nM label; competitor 50 nM to 7.6 pM; 4 hours on ice. The procedure:
For competition binding studies, ^125I-labeled A1426F (0.1 nM) was added to preparations of unlabeled A1426F, mouse IL-27 p28 with a C-terminal polyhistidine tag (A1406F), or an unrelated control protein titered from 50 nM to 7.6 pM in 1:3 serial dilutions. These preparations were incubated with BHK-mIL-27R cells for 4 hours on ice. The cells were then washed three times with ice-cold binding buffer, then solublized with 1N NaOH. These lysates were then checked for bound A1426F by checking for radiation with a gamma counter.

Assay [1] deals with T2, huIL-27 (Homo sapiens, UniProt Q14213+Q8NEV9).
T2 sequence (Q14213 21-229): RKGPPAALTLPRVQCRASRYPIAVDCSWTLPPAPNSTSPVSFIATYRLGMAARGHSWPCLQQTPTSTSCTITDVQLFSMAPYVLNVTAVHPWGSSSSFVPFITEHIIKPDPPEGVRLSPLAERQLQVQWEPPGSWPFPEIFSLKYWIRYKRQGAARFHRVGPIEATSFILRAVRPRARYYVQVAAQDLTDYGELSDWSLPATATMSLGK
T2 sequence (Q8NEV9 29-243): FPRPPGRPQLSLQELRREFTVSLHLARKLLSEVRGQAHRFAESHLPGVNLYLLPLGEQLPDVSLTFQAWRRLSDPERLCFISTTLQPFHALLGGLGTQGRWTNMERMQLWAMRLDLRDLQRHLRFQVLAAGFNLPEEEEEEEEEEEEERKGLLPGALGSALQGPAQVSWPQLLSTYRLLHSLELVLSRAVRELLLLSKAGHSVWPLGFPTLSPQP
The assay can be described thus: Phospho-STAT3 neutralization assay, total human PBMCs, huIL-27. Type of assay: cell-based. To be noted: total human PBMCs; phospho-STAT3; read-out: EC90 concentration. From the text: (§1) Whole mouse spleens were harvested from C57 B1/6 mice and washed two times with 1×PBS before being plated out at 2×10^5 cells/well in assay media (RPMI 1640 plus 10% fetal bovine serum) in 96-well, round-bottom tissue culture plates. Total human PBMC (peripheral blood mononuclear cells) were thawed from a frozen vial collected from a leukapherisis donation and washed two times with 1×PBS before being plated out at 10^6 cells/well in assay media in 96-well, round-bottom tissue culture plates. […] Following pre-incubation, treatments were added to the plates containing the cells and incubated together at 37° C. for 15 minutes.
(§2) Following incubation, cells were washed with ice-cold wash buffer (BIO-PLEX Cell Lysis Kit, BIO-RAD Laboratories, Hercules, Calif.) and put on ice to stop the reaction according to manufacturer's instructions. […]
(§3) Capture beads (BIO-PLEX Phospho-Stat3 Assay, BIO-RAD Laboratories) were combined with 50 μL of 1:1 diluted lysates and added to a 96-well filter plate according to manufacture's instructions (BIO-PLEX Phosphoprotein Detection Kit, BIO-RAD Laboratories). […] After the final wash, beads were resuspended in 125 μL/well of bead suspension buffer, shaken for 30 seconds, and read on an array reader (BIO-PLEX, BIO-RAD Laboratories) according to the manufacture's instructions. Data were analyzed using analytical softward (BIO-PLEX MANAGER 3.0, BIO-RAD Laboratories). […]

In assay [2] the target is T2, huIL-27. The assay can be described thus: Phospho-STAT3 neutralization assay, mouse spleens, huIL-27. The settings on record: mouse spleens; phospho-STAT3; read-out: EC90 concentration. Type of assay: cell-based.
Description: as §1, §2, §3

On to “A1406F: mouse IL-27 p28 with a C-terminal polyhistidine tag”, for which the “competition with ^125I-labeled A1426F for binding” value with BHK-mIL-27R cells is recorded as “unable to compete”.

As for “huIL-27: human IL-27 ligand [reference compound]”, the EC90 with huIL-27 [1] and in the assay with huIL-27 [2] was 2 nM throughout.

The record behind these values is patent publication US20100092465A1, “TREATMENT OF GRAFT-VERSUS-HOST DISEASE” (priority 2006, published 2010).
